Test results from patent publication US20230416352A1 (JIANGSU HENGRUI PHARMACEUTICALS, published 2023).

T1: human CTGF (antigen of the Biacore assays) (human, UniProt P29279 27-349, limits assumed)
T1 construct: also called human CTGF protein
T1 sequence: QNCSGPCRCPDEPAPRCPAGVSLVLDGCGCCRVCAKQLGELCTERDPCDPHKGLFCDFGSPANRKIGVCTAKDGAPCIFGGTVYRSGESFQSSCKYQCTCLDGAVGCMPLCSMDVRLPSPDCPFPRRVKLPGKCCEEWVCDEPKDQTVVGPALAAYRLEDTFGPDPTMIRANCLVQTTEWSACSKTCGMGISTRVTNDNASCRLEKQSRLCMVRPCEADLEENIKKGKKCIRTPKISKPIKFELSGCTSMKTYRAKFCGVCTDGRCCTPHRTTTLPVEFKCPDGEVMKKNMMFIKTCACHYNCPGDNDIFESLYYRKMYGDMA


Biological target: T1, human CTGF (antigen of the Biacore …)
Assay: SPR (Biacore T200), human CTGF on CM5 chip, antibody 150 ug/ml then 50 nM TGF-β1 as competitor
Protocol: The antigen human CTGF was firstly fixed onto a CM5 biosensor chip (Cat. #BR-1005-30, GE) by amino coupling at a level of 1500 RU. Then high-concentration CTGF antibody (150 μg/ml) was allowed to flow over the surface of the chip for 150 s, and 50 nM TGF-β1 protein was injected for 120 s. The reaction signals were detected in real time using a Biacore T200 instrument to obtain an association and dissociation curve. After dissociation was complete in each test cycle, the biosensor chip was washed thoroughly and regenerated with a regeneration buffer.
The data obtained from the experiment were statistically analyzed using GE Biacore T200 Evaluation version 3.0 software.
Blocking efficiency=[1−(sample response value/blank control response value)]×100%.

Binder | Percent function blocking (%)
Hu147-22wk (antibody, human IgG1, kappa, V domains shown, humanized from mab147, Hu147-VH2/VL2; IgG1/kappa) VH: EVQLVESGGGLVQPGGSLRLSCAASGFTFNTYAMNWVRQAPGKGLEWVARIRTKSNNYATYYADSVKDRFTISRDDSKNSLYLQMNSLKTEDTAVYYCVETGFAYWDQGTLVTVSS VL: EIVLTQSPATLSLSPGERATLSCSASSSVSYMHWFQQKPGQSPKLLIYSTSNLASGIPARFSGSGSGTDYTLTISSLEPEDFAVYYCQQRSSYPLTFGQGTKLEIKR | 52.3
Hu147-11wk (antibody, human IgG1, kappa, V domains shown, humanized from mab147, Hu147-VH1/VL1) VH: EVQLVESGGGLVQPGGSLRLSCAASGFTFSTYAMNWVRQAPGKGLEWVGRIRTKSNNYATYYADSVKDRFTISRDDSKNSLYLQMNSLKTEDTAVYYCVETGFAYWDQGTLVTVSS VL: EIVLTQSPATLSLSPGERATLSCSASSSVSYMHWFQQKPGQSPRLLIYSTSNLASGIPARFSGSGSGTDYTLTISSLEPEDFAVYYCQQRSSYPLTFGQGTKLEIKR | 50.8
Hu147-13wk (antibody, human IgG1, kappa, V domains shown, humanized from mab147, Hu147-VH1/VL3; IgG1/kappa) VH: EVQLVESGGGLVQPGGSLRLSCAASGFTFSTYAMNWVRQAPGKGLEWVGRIRTKSNNYATYYADSVKDRFTISRDDSKNSLYLQMNSLKTEDTAVYYCVETGFAYWDQGTLVTVSS VL: EIVLTQSPATLSLSPGERATLSCSASSSVSYMHWFQQKPGQSPKLWIYSTSNLASGVPARFSGSGSGTDYTLTISSLEPEDFAVYYCQQRSSYPLTFGQGTKLEIKR | 53.3
Hu147-21wk (antibody, human IgG1, kappa, V domains shown, humanized from mab147, Hu147-VH2/VL1; IgG1/kappa) VH: EVQLVESGGGLVQPGGSLRLSCAASGFTFNTYAMNWVRQAPGKGLEWVARIRTKSNNYATYYADSVKDRFTISRDDSKNSLYLQMNSLKTEDTAVYYCVETGFAYWDQGTLVTVSS VL: EIVLTQSPATLSLSPGERATLSCSASSSVSYMHWFQQKPGQSPRLLIYSTSNLASGIPARFSGSGSGTDYTLTISSLEPEDFAVYYCQQRSSYPLTFGQGTKLEIKR | 51.6
Hu147-23wk (antibody, human IgG1, kappa, V domains shown, humanized from mab147, Hu147-VH2/VL3; IgG1/kappa) VH: EVQLVESGGGLVQPGGSLRLSCAASGFTFNTYAMNWVRQAPGKGLEWVARIRTKSNNYATYYADSVKDRFTISRDDSKNSLYLQMNSLKTEDTAVYYCVETGFAYWDQGTLVTVSS VL: EIVLTQSPATLSLSPGERATLSCSASSSVSYMHWFQQKPGQSPKLWIYSTSNLASGVPARFSGSGSGTDYTLTISSLEPEDFAVYYCQQRSSYPLTFGQGTKLEIKR | 54.6
Hu147-31wk (antibody, human IgG1, kappa, V domains shown, humanized from mab147, Hu147-VH3/VL1; IgG1/kappa) VH: EVQLVESGGGLVQPGGSLRLSCAASGFSFNTYAMNWVRQAPGKGLEWVARIRTKSNNYATYYADSVKDRFTISRDDSESSLYLQMNSLKTEDTAVYYCVETGFAYWDQGTLVTVSS VL: EIVLTQSPATLSLSPGERATLSCSASSSVSYMHWFQQKPGQSPRLLIYSTSNLASGIPARFSGSGSGTDYTLTISSLEPEDFAVYYCQQRSSYPLTFGQGTKLEIKR | 55
Hu147-32wk (antibody, human IgG1, kappa, V domains shown, humanized from mab147, Hu147-VH3/VL2; IgG1/kappa) VH: EVQLVESGGGLVQPGGSLRLSCAASGFSFNTYAMNWVRQAPGKGLEWVARIRTKSNNYATYYADSVKDRFTISRDDSESSLYLQMNSLKTEDTAVYYCVETGFAYWDQGTLVTVSS VL: EIVLTQSPATLSLSPGERATLSCSASSSVSYMHWFQQKPGQSPKLLIYSTSNLASGIPARFSGSGSGTDYTLTISSLEPEDFAVYYCQQRSSYPLTFGQGTKLEIKR | 55.2
Hu147-33wk (antibody, human IgG1, kappa, V domains shown, humanized from mab147, Hu147-VH3/VL3; IgG1/kappa) VH: EVQLVESGGGLVQPGGSLRLSCAASGFSFNTYAMNWVRQAPGKGLEWVARIRTKSNNYATYYADSVKDRFTISRDDSESSLYLQMNSLKTEDTAVYYCVETGFAYWDQGTLVTVSS VL: EIVLTQSPATLSLSPGERATLSCSASSSVSYMHWFQQKPGQSPKLWIYSTSNLASGVPARFSGSGSGTDYTLTISSLEPEDFAVYYCQQRSSYPLTFGQGTKLEIKR | 57.3
Hu147-24wk (antibody, human IgG1, kappa, V domains shown, humanized from mab147, Hu147-VH2/VL4; IgG1/kappa) VH: EVQLVESGGGLVQPGGSLRLSCAASGFTFNTYAMNWVRQAPGKGLEWVARIRTKSNNYATYYADSVKDRFTISRDDSKNSLYLQMNSLKTEDTAVYYCVETGFAYWDQGTLVTVSS VL: DIQMTQSPSSLSASVGDRVTITCSASSSVSYMHWFQQKPGKSPKLLIYSTSNLASGVPSRFSGSGSGTDYTLTISSLQPEDFATYYCQQRSSYPLTFGQGTKLEIKR | 52.8
Hu147-14wk (antibody, human IgG1, kappa, V domains shown, humanized from mab147, Hu147-VH1/VL4; IgG1/kappa) VH: EVQLVESGGGLVQPGGSLRLSCAASGFTFSTYAMNWVRQAPGKGLEWVGRIRTKSNNYATYYADSVKDRFTISRDDSKNSLYLQMNSLKTEDTAVYYCVETGFAYWDQGTLVTVSS VL: DIQMTQSPSSLSASVGDRVTITCSASSSVSYMHWFQQKPGKSPKLLIYSTSNLASGVPSRFSGSGSGTDYTLTISSLQPEDFATYYCQQRSSYPLTFGQGTKLEIKR | 50.9
Hu147-15wk (antibody, human IgG1, kappa, V domains shown, humanized from mab147, Hu147-VH1/VL5; IgG1/kappa) VH: EVQLVESGGGLVQPGGSLRLSCAASGFTFSTYAMNWVRQAPGKGLEWVGRIRTKSNNYATYYADSVKDRFTISRDDSKNSLYLQMNSLKTEDTAVYYCVETGFAYWDQGTLVTVSS VL: DIQLTQSPSSLSASVGDRVTITCSASSSVSYMHWFQQKPGKSPKLWIYSTSNLASGVPSRFSGSGSGTDYTLTISSLQPEDFATYYCQQRSSYPLTFGQGTKLEIKR | 52.3
Hu147-34wk (antibody, human IgG1, kappa, V domains shown, humanized from mab147, Hu147-VH3/VL4; IgG1/kappa) VH: EVQLVESGGGLVQPGGSLRLSCAASGFSFNTYAMNWVRQAPGKGLEWVARIRTKSNNYATYYADSVKDRFTISRDDSESSLYLQMNSLKTEDTAVYYCVETGFAYWDQGTLVTVSS VL: DIQMTQSPSSLSASVGDRVTITCSASSSVSYMHWFQQKPGKSPKLLIYSTSNLASGVPSRFSGSGSGTDYTLTISSLQPEDFATYYCQQRSSYPLTFGQGTKLEIKR | 56.2
Hu147-12wk (antibody, human IgG1, kappa, V domains shown, humanized from mab147, Hu147-VH1/VL2; IgG1/kappa) VH: EVQLVESGGGLVQPGGSLRLSCAASGFTFSTYAMNWVRQAPGKGLEWVGRIRTKSNNYATYYADSVKDRFTISRDDSKNSLYLQMNSLKTEDTAVYYCVETGFAYWDQGTLVTVSS VL: EIVLTQSPATLSLSPGERATLSCSASSSVSYMHWFQQKPGQSPKLLIYSTSNLASGIPARFSGSGSGTDYTLTISSLEPEDFAVYYCQQRSSYPLTFGQGTKLEIKR | 51.6
Hu164-67wl (antibody, human IgG1, lambda, humanized from mab164, Hu164-VH6/VL7; IgG1/lambda) heavy: not shown light: ETVVTQEPSLTVSPGGTVTLTCRSSIGAVTTSNYANWVQQKPGQAFRGLIGGTSNRAPWTPARFSGSLLGGKAALTLSGVQPEDEAEYYCALWYSTHYVFGGGTKLTVLGQPKANPTVTLFPPSSEELQANKATLVCLISDFYPGAVTVAWKADGSPVKAGVETTKPSKQSNNKYAASSYLSLTPEQWKSHRSYSCQVTHEGSTVEKTVAPTEC | 55.5
Hu164-67yl (antibody, human IgG1, lambda, humanized from mab164, Hu164-VH6/VL7) heavy: EVTLKESGPVLVKPTETLTLTCTVSGFSLSTFGVHWIRQPPGKGLEWLGVIWRRGGTDYNAAFMSRLTISKDTSKSQVVFTMTNMDPVDTATYYCARDGGFDYWGQGTTVTVSSASTKGPSVFPLAPSSKSTSGGTAALGCLVKDYFPEPVTVSWNSGALTSGVHTFPAVLQSSGLYSLSSVVTVPSSSLGTQTYICNVNHKPSNTKVDKKVEPKSCDKTHTCPPCPAPELLGGPSVFLFPPKPKDTLYITREPEVTCVVVDVSHEDPEVKFNWYVDGVEVHNAKTKPREEQYNSTYRVVSVLTVLHQDWLNGKEYKCKVSNKALPAPIEKTISKAKGQPREPQVYTLPPSRDELTKNQVSLTCLVKGFYPSDIAVEWESNGQPENNYKTTPPVLDSDGSFFLYSKLTVDKSRWQQGNVFSCSVMHEALHNHYTQKSLSLSPGK light: ETVVTQEPSLTVSPGGTVTLTCRSSIGAVTTSNYANWVQQKPGQAFRGLIGGTSNRAPWTPARFSGSLLGGKAALTLSGVQPEDEAEYYCALWYSTHYVFGGGTKLTVLGQPKANPTVTLFPPSSEELQANKATLVCLISDFYPGAVTVAWKADGSPVKAGVETTKPSKQSNNKYAASSYLSLTPEQWKSHRSYSCQVTHEGSTVEKTVAPTEC | 53.9
CTGF antibody mAb1 (antibody, V domains shown, positive control, from CN1829740B; also called pamrevlumab; FG-3019) VH: EGQLVQSGGGLVHPGGSLRLSCAGSGFTFSSYGMHWVRQAPGKGLEWVSGIGTGGGTYSTDSVKGRFTISRDNAKNSLYLQMNSLRAEDMAVYYCARGDYYGSGSFFDCWGQGTLVTVSS VL: DIQMTQSPSSLSASVGDRVTITCRASQGISSWLAWYQQKPEKAPKSLIYAASSLQSGVPSRFSGSGSGTDFTLTISSLQPEDFATYYCQQYNSYPPTFGQGTKLEIKR | 41.3
